Results taken from publication doi:10.1101/130245 (bioRxiv, 2017).
Values joined by “and” are separate entries in the source; they are usually repeats but may differ in a detail not shown here. Equal values may be shown once.

What was measured:
SEC = target: the molecule itself; test: SEC
crystal structure = target: the molecule itself; test: crystal structure

Protein	stoichiometry N (SEC)	binding result (crystal structure)
untagged C-terminally truncated human 14-3-3σ (14-3-3σΔC: residues 1-231) (domain or fragment) MERASLIQKAKLAEQAERYEDMAAFMKGAVEKGEELSCEERNLLSVAYKNVVGGQRAAWRVLSSIEQKSNEEGSEEKGPEVREYREKVETELQGVCDTVLGLLDSHLIKEAGDAESRVFYLKMKGDYYRYLAEVATGDDKKRIIDSARSAYQEAMDISKKEMPPTNPIRLGLALNFSVFHYEIANSPEEAISLAKTTFDEAMADLHTLSEDSYKDSTLIMQLLRDNLTLWT	2	
chimera CH2 of 14-3-3σΔC Clu3 with the Gli phosphopeptide (other, phosphoserine at the Ser that is Ser640 of Gli (RRApSDPAQA)) GPHMERASLIQKAKLAEQAERYEDMAAFMKGAVEKGEELSCEERNLLSVAYKNVVGGQRAAWRVLSSIEQKSNEEGSAAAGPEVREYREKVETELQGVCDTVLGLLDSHLIKEAGDAESRVFYLKMKGDYYRYLAEVATGDDKKRIIDSARSAYQEAMDISKKEMPPTNPIRLGLALNFSVFHYEIANSPEEAISLAKTTFDEAMADLHTLSEDSYKDSTLIMQLLRDNLTLWTGSGSLRRASDPAQA		binds
14-3-3/HSPB6 protein-phosphopeptide chimera CH1 (14-3-3σΔC Clu3 fused through a GSGS linker to the HSPB6 phosphopeptide) (other, phosphoserine at the Ser that is Ser16 of HSPB6 (RRApSAPL)) GPHMERASLIQKAKLAEQAERYEDMAAFMKGAVEKGEELSCEERNLLSVAYKNVVGGQRAAWRVLSSIEQKSNEEGSAAAGPEVREYREKVETELQGVCDTVLGLLDSHLIKEAGDAESRVFYLKMKGDYYRYLAEVATGDDKKRIIDSARSAYQEAMDISKKEMPPTNPIRLGLALNFSVFHYEIANSPEEAISLAKTTFDEAMADLHTLSEDSYKDSTLIMQLLRDNLTLWTGSGSLRRASAPL	2 and 4	
